According to patent US20260275312, “CRISPR NUCLEASE POLYPEPTIDES AND GENE EDITING SYSTEMS COMPRISING SUCH” (ARBOR BIOTECHNOLOGIES, INC., published 2026):

T1: Nuclease W S925R/E715R/A65R (synthetic construct, S925R,E715R,A65R)
T1 chain: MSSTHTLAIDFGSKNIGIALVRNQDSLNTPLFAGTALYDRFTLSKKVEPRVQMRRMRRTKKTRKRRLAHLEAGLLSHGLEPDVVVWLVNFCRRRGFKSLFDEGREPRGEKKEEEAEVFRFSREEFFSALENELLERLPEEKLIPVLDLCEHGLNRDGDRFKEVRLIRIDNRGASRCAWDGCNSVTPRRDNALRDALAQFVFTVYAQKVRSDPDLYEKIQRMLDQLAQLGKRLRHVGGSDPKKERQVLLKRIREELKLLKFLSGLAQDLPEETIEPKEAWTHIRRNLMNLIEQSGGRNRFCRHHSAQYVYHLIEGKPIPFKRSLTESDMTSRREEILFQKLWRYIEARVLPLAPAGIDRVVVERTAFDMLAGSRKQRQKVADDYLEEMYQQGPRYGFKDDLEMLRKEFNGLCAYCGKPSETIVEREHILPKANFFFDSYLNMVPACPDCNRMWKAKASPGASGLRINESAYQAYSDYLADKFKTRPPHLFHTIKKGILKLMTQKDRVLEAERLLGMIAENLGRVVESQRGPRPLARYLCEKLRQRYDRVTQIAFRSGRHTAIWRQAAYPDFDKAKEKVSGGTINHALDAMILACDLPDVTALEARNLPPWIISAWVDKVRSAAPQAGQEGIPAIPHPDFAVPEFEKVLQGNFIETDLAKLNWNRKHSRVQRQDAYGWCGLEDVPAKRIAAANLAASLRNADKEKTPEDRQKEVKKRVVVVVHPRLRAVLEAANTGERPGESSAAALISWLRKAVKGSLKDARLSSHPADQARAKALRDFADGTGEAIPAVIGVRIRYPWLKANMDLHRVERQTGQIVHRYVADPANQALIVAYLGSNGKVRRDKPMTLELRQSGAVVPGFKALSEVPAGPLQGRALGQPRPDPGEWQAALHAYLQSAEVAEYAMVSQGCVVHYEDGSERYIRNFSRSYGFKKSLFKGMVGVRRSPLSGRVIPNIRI

T2: Nuclease H L54R (synthetic construct, L54R)
T2 chain: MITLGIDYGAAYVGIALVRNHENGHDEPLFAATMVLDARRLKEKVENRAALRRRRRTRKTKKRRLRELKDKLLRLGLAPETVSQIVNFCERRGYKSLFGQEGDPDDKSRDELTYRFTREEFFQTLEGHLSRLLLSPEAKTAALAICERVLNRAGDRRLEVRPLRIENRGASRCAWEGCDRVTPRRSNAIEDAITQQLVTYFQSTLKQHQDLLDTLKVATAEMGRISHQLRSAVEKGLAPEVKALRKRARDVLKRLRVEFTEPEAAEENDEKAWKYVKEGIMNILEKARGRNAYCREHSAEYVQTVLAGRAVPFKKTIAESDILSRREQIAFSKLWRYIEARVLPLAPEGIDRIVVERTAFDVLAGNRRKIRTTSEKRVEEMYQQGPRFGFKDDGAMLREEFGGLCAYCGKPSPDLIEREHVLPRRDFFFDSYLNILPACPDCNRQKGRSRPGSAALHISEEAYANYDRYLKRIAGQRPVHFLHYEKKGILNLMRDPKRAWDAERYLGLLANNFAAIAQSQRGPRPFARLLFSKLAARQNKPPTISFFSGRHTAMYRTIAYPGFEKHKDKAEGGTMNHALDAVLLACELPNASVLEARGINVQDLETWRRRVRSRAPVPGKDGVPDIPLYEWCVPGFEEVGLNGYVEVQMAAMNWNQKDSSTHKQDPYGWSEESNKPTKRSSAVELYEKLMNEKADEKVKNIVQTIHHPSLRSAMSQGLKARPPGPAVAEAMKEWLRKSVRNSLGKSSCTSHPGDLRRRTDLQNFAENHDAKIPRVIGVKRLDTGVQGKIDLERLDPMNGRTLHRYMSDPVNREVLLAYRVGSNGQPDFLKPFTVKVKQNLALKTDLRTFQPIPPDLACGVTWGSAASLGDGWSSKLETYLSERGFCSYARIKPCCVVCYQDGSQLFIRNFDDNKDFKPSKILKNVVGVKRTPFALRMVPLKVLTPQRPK

B1: W EMX1-T5 RNA guide ; EMX1-T5 target (W) (ssRNA ; dsDNA)
RNA: UAAACUACAGUGGUGCCUGGGUUUCAGCUACCCUGAGUUUCUCAACUCCGUUGAGACUUCCUCAGGUUCAAGCUGAAAAGAGCAUCUGUCCGGAAGGACCACUCCGGGUUAGGGCAGACCCGGCUCUUGGGCUUCCUUGGUCUUUGACUCUGGAGGAAACCUUCCGGCGUGUCGCAAGACAAGAUGUGAGCCUG
DNA 1: TAAACTACAGTGGTGCCTGG
DNA 2: CCAGGCACCACTGTAGTTTA
B2: H AAVS1-T5 RNA guide ; AAVS1-T5 target (H) (ssRNA ; dsDNA)
RNA: GGCUAUAAUCCAUGCUGACCGUUUCAAUCAACCUGAUCUCUCUGCUUGCGCUGCAGGCUUCAUAAGAUCAGUAGGUUGAAAAGAGCAUCCGUCCGACAUGCACUCCGGGAUGGGGCAGUCCCGGCUCUUGCGGUUCCCGAUGCAGUUAUGUGUCCGCGGAACACGGUGUCGGACACGUCGCAAGACAGGAUGUGAGCCCAUUAUCCACAUUAGGAUCAAUGUACGCAUGAGCAGUCCGCAAUGCCGGGGACGCU
DNA 1: GGCTATAATCCATGCTGACC
DNA 2: GGTCAGCATGGATTATAGCC

Assays:
[1] = target: T1, Nuclease W S925R/E715R/A65R; assay: cell_activity; HEK293T; PAM AAA; details: tags: N-term SV40 NLS, XTEN linker + C-term nucleoplasmin NLS
Protocol: Approximately 16 hours prior to transfection, 25,000 HEK293T cells in DMEM/10% FBS+Pen/Strep (D10 media) were plated into each well of a 96-well plate. On the day of transfection, the cells were 50-90% confluent. For each well to be transfected, a mixture of Lipofectamine 2000™ (ThermoFisher Scientific) and Opti-MEM™ (ThermoFisher Scientific) was prepared and incubated at room temperature for 5 minutes (Solution 1). After incubation, the Lipofectamine 2000™:Opti-MEM™ mixture was added to a separate mixture containing the CRISPR nuclease plasmid (NLS-tagged), RNA guide plasmid, and Opti-MEM™ (Solution 2). In the case of negative controls, the CRISPR nuclease plasmid was excluded. Solutions 1 and 2 were mixed by pipetting up and down, then incubated at room temperature for 25 minutes. Following incubation, the Solution 1 and 2 mixture was added dropwise to each well of a 96-well plate containing the cells. […]
Each Nuclease W variant was cloned as described in Example 2. […] For each target, indel ratios, referring to the percentage of NGS reads comprising indels, were calculated for the reference Nuclease W (SEQ ID NO: 1) and for each Nuclease W variant. The indel ratios shown in Table 5 were calculated as the average of two bioreplicates, each of which contained two technical replicates.

Nuclease H L54R = target: T2, Nuclease H L54R; assay: cell_activity; HEK293T; PAM AAC; details: tags: N-term SV40 NLS, XTEN linker + C-term nucleoplasmin NLS
Protocol: HEK293T cells were transfected with plasmids expressing the Nuclease H polypeptides and the gRNAs provided herein following the methods provided in Example 1 above. Gene editing efficiencies were determined by NGS following the methods also provided in Example 1. The NGS results were analyzed also following the methods provided in Example 1 above.
Indel ratios, referring to the percentage of NGS reads comprising indels, were calculated for the reference and for each variant. The indel ratios used for fold change calculations were the average of two technical replicates. To then calculate fold change in indel ratios, the indel ratio for each variant was divided by the indel ratio for the reference. […] Numbering is relative to the reference nuclease of SEQ ID NO: 64 (i.e., without an NLS).

Binder	binding signal [1] [fold indel vs reference]	fold change in indel ratio vs reference (Nuclease H L54R) [fold indel vs reference]
B1	4.84	
B2		16.6
